In patent publication US11739161B2, “Methods for treating and diagnosing prostate cancer” (Tufts Medical Center, Inc., priority 2017, dated 2023):

Assays:
Assay type in all cases: cell-based, human
[1] = test system: AXL phosphorylation in DU145 cells; test: AXL phosphorylation (phospho-RTK array, immunoblot); details: serum-starved DU145, 1 μg/ml protein
Experimental: FIGS. 12A-F. RNASE4 induces AXL phosphorylation. (A) Human phospho-receptor tyrosine kinase (RTK) antibody array analysis. Serum-starved DU145 cells were treated with or without 1 μg/ml of RNASE4 for 5 minutes. A total of 1.5 mg cell lysate protein was blotted on each array membrane. […] (B) Immunoblot analysis of RNASE4-stimulated AXL phosphorylation. DU145 cells were serum-starved overnight and treated with 1 μg/ml of RNASE4 for the indicated time. Cell lysates were analyzed by antibodies against total AXL and phospho-AXL, with β-actin as the loading control. Left panels, immunoblots; right panel, Image J quantification of p-AXL normalized to total AXL. (C) Immunoblot analysis of phospho-AXL in response to stimulation by ANG, RNase A, and RNASE4. DU145 cells were serum-starved overnight and treated with 1 μg/ml of ANG, RNase A, or RNASE4 for 15 minutes. Left panels, immunoblots; right panel, quantification. (D) Effect of AXL inhibitor R428 on RNASE4-induced cell proliferation. Serum-starved DU145 cells were incubated with 1 or 3 μM R428 for 3 hours and then stimulated by 1 μg/ml of RNASE4 for 3 days. Cell numbers were determined by MTT assay. Data shown are means±SEM of a representative experiment (in triplicates) of 3 independent repeats. **P≤0.01 and ***P≤0.001, by unpaired two-tailed Student's t test. (E) Effect of AXL inhibitor R428 on RNASE4-induced AKT and P6 phosphorylation. Serum-starved DU145 cells were incubated with 1 or 3 μM R428 for 3 hours and then stimulated by 1 μg/ml of RNASE4 for 5 minutes. Cell lysates were analyzed for AKT and P6 phosphorylation by immunoblotting. Top panels, immunoblots; bottom panels, quantification of phospho-AKT and phospho-S6 by Image J analyses normalized to total AKT and P6, respectively. (F) Schematic presentation of proposed involvement of AXL in RNASE4-stimulated cellular events.
Human Phospho-RTK Arrays were purchased from R&D Systems. […] Protein concentrations were quantified by Bradford Assay and 1.5 mg cell lysate was used per array. Pixel densities on were analyzed by ImageJ. […]

PC-3 cells = test: RNASE4 knockdown, cell proliferation (Coulter counter); details: PC-3, exogenous RNASE4 1 μg/ml
Source text: FIGS. 13A-D. RNASE4 knockdown reduces prostate cancer cell proliferation in vitro and colony formation in soft agar. (A) Immunoblot analysis of RNASE4 in PC-3 cells stably transfected with shControl, shRNASE4-1, and shRNASE4-2. (B) qRT-PCR analysis of RNASE4 mRNA normalized to GAPDH in PC-3 cells stably transfected with shControl, shRNASE4-1, and shRNASE4-2. (C) Effect of RNASE4 knockdown on cell proliferation. Cell numbers were counted by a Coulter counter. Exogenous RNASE4, when presented, was at the concentration of 1 μg/ml. Data shown are from representative experiment (in triplicates) of 3 independent repeats. (D) Effects of RNASE4 knockdown on colonies formation and growth of PC-3 cells in soft agar. The same numbers of control and RNASE4 knockdown cells were seeded in soft agar, and grown in the absence or presence of 1 μg/ml of RNASE4 for 14 days. Colonies were counted and size measured on a Nikon Eclipse ti microscope. Left panels, representative images of colonies; scale bars=100 μm. Right panels, quantification of colony numbers and sizes. Data shown are means±SEM from five randomly selected fields per dish from a representative experiment. *P≤0.05, **P≤0.01, and ***P≤0.001, by two-tailed Student's t test.
(§1) Lentiviral mediated shRNA system (pGIPZ, Open Biosystems) was used to generate control and RNASE4 knockdown cell lines. […]

DU145 cells = test: RNASE4 knockdown, colony formation in soft agar; details: DU145, exogenous RNASE4 1 μg/ml, 14 days
Source text: FIGS. 14A-D. RNASE4 knockdown inhibits DU145 cell proliferation in vitro and colony formation in soft agar. (A) Immunoblot analysis of RNASE4 in DU145 cells stably transfected with shControl, shRNASE4-1, and shRNASE4-2. (B) qRT-PCR analysis of RNASE4 mRNA normalized to GAPDH in DU145 cells stably transfected with shControl, shRNASE4-1, and shRNASE4-2. (C) Effect of RNASE4 knockdown on cell proliferation. Cell numbers were counted by Coulter counter. Exogenous RNASE4, when presented, was at the concentration of 1 μg/ml. Data shown are from a representative experiment in triplicates of 3 independent experiments. (D) Effects of RNASE4 knockdown on colonies formation and growth of DU145 cells in soft agar. The same numbers of control and RNASE4 knockdown cells were seeded in soft agar, and grown in the absence or presence of 1 μg/ml of RNASE4 for 14 days. Colonies were counted and size measured on a Nikon Eclipse ti microscope. Top panels, representative images of colonies; scale bars=100 μm. Bottom panels, quantification of DU145 cell colonies and sizes in soft agar. Data shown are means±SEM of five randomly selected fields per dish from a representative experiment. **P≤0.01 and ***P≤0.001, by two-tailed Student's t test.
as §1

LNCaP cells = test: RNASE4 knockdown, colony formation in soft agar; details: exogenous RNASE4 1 μg/ml, 14 days
Source text: FIGS. 15A-D. RNASE4 knockdown inhibits LNCaP cell proliferation in vitro and colony formation in soft agar. (A) Immunoblot analysis of RNASE4 in LNCaP cells stably transfected with shControl, shRNASE4-1, and shRNASE4-2. (B) qRT-PCR analysis of RNASE4 mRNA normalized to GAPDH in LNCaP cells stably transfected with shControl, shRNASE4-1, and shRNASE4-2. (C) Effect of RNASE4 knockdown on LNCaP cell proliferation. Cell numbers were counted by Coulter counter. Exogenous RNASE4, when presented, was at the concentration of 1 μg/ml. Data shown are from a representative experiment in triplicates of 3 independent experiments. (D) Effects of RNASE4 knockdown on colonies formation and growth of LNCaP cells in soft agar. The same numbers of control and RNASE4 knockdown cells were seeded in soft agar, and grown in the absence or presence of 1 μg/ml of RNASE4 for 14 days. Colonies were counted and size measured on a Nikon Eclipse ti microscope. Top panels, representative images of colonies; scale bars=100 μm. Bottom panels, quantification of LMCaP cell colonies and sizes in soft agar. Data shown are means±SEM of five randomly selected fields per dish from a representative experiment. **P≤0.01 and ***P≤0.001, by two-tailed Student's t test.
as §1

B1: RNASE4: recombinant human RNASE4 protein from pET11 expression in E. coli, purified by reversed-phase HPLC; added exogenously (protein, UniProt P34096 29-147, looked up)
Ribonuclease 4: QDGMYQRFLRQHVHPEETGGSDRYCNLMMQRRKMTLYHCKRFNTFIHEDIWNIRSICSTTNIQCKNGKMNCHEGVVKVTDCRDTGSSRAPNCRYRAIASTRRVVIACEGNPQVPVHFDG
**Q.** How did the “phosphorylation of AXL” value [1] turn out when B1 was run?
**A.** induced phosphorylation

**Q.** What about the “rescue of the effect of RNASE4 knockdown on cell proliferation” value (PC-3 cells) of the same molecule?
**A.** able to rescue

**Q.** And the “rescue of the effect of RNASE4 knockdown on colony formation” value (DU145 cells)?
**A.** able to rescue

**Q.** And the “rescue of the effect of RNASE4 knockdown on colony formation” value (LNCaP cells)?
**A.** able to rescue
